Test results taken from patent US20170130205A1, “METHOD FOR PREPARING INDUCED PLURIPOTENT STEM CELLS” (TAIPEI VETERANS GENERAL HOSPITAL, priority 2014, published 2017).

Assays:
Assay type in all cases: cell-based, human
ESC-CMs, Ctrl-iPSC-CMs = test: Alox12/Alox15 protein expression on Gb3 treatment (Western blot, immunofluorescence), control cells; conditions: post-induction day 20, Gb3 15 μmole/L, 24 hours
Procedure: (§1) The extraction of proteins from cells and western blot analysis were performed as described previously (Yang et al., Inhibition of cancer stem cell-like properties and reduced chemoradioresistance of glioblastoma using microrna145 with cationic polyurethane-short branch pei. Biomaterials. 2012; 33:1462-1476). Whole cell lysates were separated by electrophoresis on 12% SDS-PAGE and transferred to a polyvinylidene fluoride membrane. The membranes were blocked with 5% nonfat milk at room temperature for 1 hour. The blots were incubated with primary antibodies in TBST buffer containing 3% nonfat milk at 4° C. overnight and subsequently with secondary antibodies conjugated with peroxidase at 25° C. for 1 hour. The immunoblots were developed using an enhanced chemiluminescence system, and the luminescence was visualized on X-ray film.
(§2) The living cells and spheres were fixed in 4% paraformaldehyde, permeabilized in 0.1% Triton X-100, and blocked in 5% normal goat serum in PBS. […] The total amount of retained autofluorescent material was determined in the red (546) and green (488) channels by quantifying the pixel area (Adobe Photoshop/Image J software). The cellular area contents of the normal iPSC-CMs and the FD-iPSC-CMs were quantified using the ImageJ software package (National Institutes of Health, Bethesda, MD).

FD-iPSC-CMs [1] = test: Alox12/Alox15 protein expression on Gb3 treatment (Western blot, immunofluorescence), Fabry cells; conditions: FD-iPSC-CMs (Pt1 to Pt8), post-induction day 20; Gb3 15 μmole/L, 24 hours; vs ESC-CMs and Ctrl-iPSC-CMs
Procedure: as §1, §2

Ctrl-iPSC-CMs or ESC-CMs = test: ELISA of 12-HETE/15-HETE secretion into conditioned medium on Gb3 treatment, control cells; conditions: Gb3 15 μmole/L, 24 hours
FD-iPSC-CMs [2] = test: ELISA of 12-HETE/15-HETE secretion into conditioned medium on Gb3 treatment, Fabry cells; conditions: FD-iPSC-CMs (Pt1 to Pt8); Gb3 15 μmole/L, 24 hours
Ctrl-iPSC-CMs = test: MED64 multi-electrode field potential recording of beating iPSC-derived cardiomyocytes (control); conditions: post-induction day 60, isoproterenol 0, 1, 10 μM
Procedure: (§3) The recording area of probes with 64 recording electrodes (MED probe; MED-P515A, Alpha Med Scientific, Osaka) for the MED64 System (Alpha Med Scientific) was coated with 2 ml of 0.1% gelatin that had been incubated at 37° C. for 1 hour. Beating iPSC-derived CMs were transferred onto the MED-probe dishes, and the electrical potentials were recorded with the MED64 multi-electrode array system. […] To evaluate the compounds, a cluster was treated with a compound in stepwise concentration increments. The medium was perfused at 1.7 ml/min at 37° C., and the field potentials were measured for 5 min.

FD-iPSC-CMs [3] = test: MED64 multi-electrode field potential recording of beating iPSC-derived cardiomyocytes (Fabry); conditions: post-induction day 60
Procedure: as §3

[4] = system: ESC-CMs, Ctrl-iPSC-CMs, FC-iPSC-CMs; test: GLA enzyme activity in cardiomyocytes with administration of GLA; conditions: day 20 post-induction; GLA 5 μg/ml for 5 days; all experimental cells
Procedure: Cells were washed twice with PBS, incubated in 200 μl of fresh medium at 37° C. and 5% CO2 for 2 hours, and washed twice with PBS. Afterward, the cells were lysed in 60 μl of Lysis Buffer (27 mM of sodium citrate, 46 mM of sodium phosphate dibasic, 0.5% Triton X-100, pH 4.6). Lysates (10 μl) were added to 50 μl of Assay Buffer (Lysis Buffer without Triton X-100) containing 6 mM of 4-MUG and 117 mM of N-acetyl-D-galactosamine (GalNac, an inhibitor of -N-acetylgalactosaminidase, which is a lysosomal enzyme present in cell lysates that hydrolyzes 4-MUG) and incubated at 37° C. for 1 hour. The Stop Solution (0.4 M glycine, pH 10.8; 70 μl) was added, and the fluorescence was read on a Victor plate reader (Perkin-Elmer, Waltham, Mass.) at 355 nm excitation and 460 nm emission. A Micro BCA Protein Assay Kit (Pierce, Rockford, Ill.) was used according to the manufacturer's instructions to determine the protein concentration from 40 μl of cell lysate from each well. The total protein amount in each well was used to normalize the enzyme activity. A 4-methylumbelliferone (4-MU) standard curve ranging from 1.3 nM to 30 μM was run in parallel to calculate the absolute -Gal A activity, expressed as nmol of 4-MU released/mg protein/hour (nmol/mg protein/hour), which was normalized to the percentage of the untreated wild-type (% WT) enzyme activity. […]

FC-iPSC-CMs [5] = test: Immunofluorescence of Alox12/15 and fibrotic markers in FC-iPSC-CMs under ERT; conditions: read at day 60
Procedure: (§4) The living cells and spheres were fixed in 4% paraformaldehyde, permeabilized in 0.1% Triton X-100, and blocked in 5% normal goat serum in PBS. After being washed three times with PBS, the cells were incubated with goat anti-mouse secondary antibodies conjugated with FITC (green) or PE (red). DAPI (blue) was used as the nuclear stain. Labeled cells were imaged with a laser-scanning confocal microscope (Olympus). The total amount of retained autofluorescent material was determined in the red (546) and green (488) channels by quantifying the pixel area (Adobe Photoshop/Image J software). The cellular area contents of the normal iPSC-CMs and the FD-iPSC-CMs were quantified using the ImageJ software package (National Institutes of Health, Bethesda, MD).
(§5) However, the interrelationship between treatment onset and the efficacy of ERT drugs in FC with fibrotic progression remains unclear. Therefore, we compared the treatment efficacy of GLA between early (5 μg/ml of GLA from day 20 to day 60 post-differentiation; FIG. 13C) and late (5 μg/ml of GLA from day 40 to day 60 post-differentiation; FIG. 13D) administrations in FC-iPSC-CMs, and evaluated the levels of cardiac Alox12/15 and fibrotic markers at day 60 post-differentiation. […] We therefore tested the treatment efficacy of the pharmacological inhibition of cardiac Alox12/15 in combination with ERT (FIG. 15).

FC-iPSC-CMs [6] = test: Cell size of FC-iPSC-CMs by quantification of cTnT-positive margins; conditions: early-administration: 5 μg/ml GLA day 20 to day 60
Procedure: as §4, §5

FC-iPSC-CMs [7] = test: Secreted levels of LysoGb3, 12(S)-HETE and 15(S)-HETE from FC-iPSC-CMs
Procedure: For liquid chromatography for lysoGb3 and Gb3 analysis, we used Waters Alliance 2795XE HPLC system to perform stepwise gradient elution. The flow rate was 0.3 mL/min in lysoGb3 or Gb3 experiment. Mass spectrometry of lysoGb3 and Gb3 detection was performed in positive ion mode (ES+) on a triple quadruplemass spectrometer (Quattro Ultima, Waters, Milford, Mass.) with NeoLynx software version 4.1. The analyzing methods were modified from the protocol provided by Shire Human Genetic Therapies. LC-MS/MS analysis was performed using an LTQ Orbitrap (Thermo Fisher Scientific) as described previously.
Whole blood samples were collected into 1.8 mg/ml EDTA-K3 tubes and centrifuged at 2500×g for 20 min at room temperature to obtain the plasma samples. The aliquots were stored at −80° C. until use. Enzyme-linked immunoassays (ELISAs) were used for 15(S) HETE (Cayman Chemicals) and 12(S) HETE (Detroit R&D) quantification according to the manufacturers' instructions (Detroit R&D).
as §5

[8] = early-administration of GLA, day 60, vs untreated cells
[9] = late-administration of GLA, day 60

globotriaosylceramide [Gb3] was tested, and the “Alox12 and Alox15 protein expression” value (ESC-CMs, Ctrl-iPSC-CMs) was “increased”, the Alox12/Alox15 protein expression (FD-iPSC-CMs [1]) was “upregulation of Alox12/Alox15 at higher magnitudes” and the “secretion of 12-HETE/15-HETE” value (Ctrl-iPSC-CMs or ESC-CMs) was “mildly increase”. The “secretion of 12-HETE and 15-HETE” value (FD-iPSC-CMs [2]) was “largely stimulated”.

`CC(C)NCC(O)c1ccc(O)c(O)c1` (stereo not shown) [Isoproterenol, isoproterenol] was tested, and the “effect on beating frequency of contractile colonies” value (Ctrl-iPSC-CMs) was “dose-dependent chronotropic effect” and the “electrophysiological response (beating frequency) to the drug” value (FD-iPSC-CMs [3]) was “random occurrences of arrhythmias”.

B1: α-galactosidase A (protein, UniProt P06280 32-429, looked up)
Alpha-galactosidase A: LDNGLARTPTMGWLHWERFMCNLDCQEEPDSCISEKLFMEMAELMVSEGWKDAGYEYLCIDDCWMAPQRDSEGRLQADPQRFPHGIRQLANYVHSKGLKLGIYADVGNKTCAGFPGSFGYYDIDAQTFADWGVDLLKFDGCYCDSLENLADGYKHMSLALNRTGRSIVYSCEWPLYMWPFQKPNYTEIRQYCNHWRNFADIDDSWKSIKSILDWTSFNQERIVDVAGPGGWNDPDMLVIGNFGLSWNQQVTQMALWAIMAAPLFMSNDLRHISPQAKALLQDKDVIAINQDPLGKQGYQLRQGDNFEVWERPLSGLAWAVAMINRQEIGGPRSYTIAVASLGKGVACNPACFITQLLPVKRKLGFYEWTSRLRSHINPTGTVLLQLENTMQMSLKDLL
notes: enzyme used as enzyme replacement therapy (ERT) in the FC-iPSC-CM platform
With B1 the “GLA activity in cells” value [4] was “elicited high GLA activity”, the “expression levels of Alox12/15 and fibrotic biomarkers MMP1, TGF-β and collagen1” value (FC-iPSC-CMs [5]; early-administration: 5 μg/ml GLA day 20 to day 60) was “suppressed” and the fibrotic protein expression (FC-iPSC-CMs [5]; late-administration: 5 μg/ml GLA day 40 to day 60) was “negligible inhibitory effect”. For the same molecule, the “cell size of FC-iPSC-CMs” value (FC-iPSC-CMs [6]) was “prominently reduced”, the “secreted level of 12-HETE” value (FC-iPSC-CMs [7]; [8]) was “significantly suppressed” and the “secreted level of 15-HETE” value (FC-iPSC-CMs [7]; [8]) was “significantly suppressed”. The “secreted level of lysoGb3” value (FC-iPSC-CMs [7]; [8]) was “significantly suppressed”, the “secreted level of lysoGb3” value (FC-iPSC-CMs [7]; [9]) was “significant reduction” and the “secretion of 12(S)-HETE” value (FC-iPSC-CMs [7]; [9]) was “negligible inhibitory effect”. For the same molecule, the “secretion of 15(S)-HETE” value (FC-iPSC-CMs [7]; [9]) was “negligible inhibitory effect”.
